Columns and labels:
Test in all cases: MST
[1] = molecular target: RSV postfusion F (Respiratory syncytial virus) (UniProt P03420+P03420); settings: T in primer region unmodified, MST: PBS, 0.05% Tween 20, 25 C, 10-20 nM Cy5-aptamer, AlphaScreen: PBS with mucin 10 mg/L, BSA 1 mg/ml, salmon sperm DNA 1 mg/L, RT, 10 nM biotin-aptamer …
[2] = tested on: Influenza H1 hemagglutinin S106 DS26r (Influenza virus H1); settings: every U is TAdU (5-[(3-indolyl)propionamide-N-allyl]-2'-deoxyuridine); all sugars deoxyribose; T in primer region unmodified; MST: PBS, 0.05% Tween 20, 25 C, 10-20 nM Cy5-aptamer; AlphaScreen: PBS with mucin 10 mg/L, BSA 1 mg/ml, salmon sperm DNA 1 mg/L, RT, 10 nM biotin-aptamer …
[3] = molecular target: hMPV prefusion F v3B (Human metapneumovirus) (UniProt Q6WB98); settings: every U is TAdU (5-[(3-indolyl)propionamide-N-allyl]-2'-deoxyuridine); all sugars deoxyribose; T in primer region unmodified; MST: PBS, 0.05% Tween 20, 25 C, 10-20 nM Cy5-aptamer; AlphaScreen: PBS with mucin 10 mg/L, BSA 1 mg/ml, salmon sperm DNA 1 mg/L, RT, 10 nM biotin-aptamer …
hMPV prefusion F v3B (Human metapneumovirus), sequence (Q6WB98 whole entry, the tested form may be a part): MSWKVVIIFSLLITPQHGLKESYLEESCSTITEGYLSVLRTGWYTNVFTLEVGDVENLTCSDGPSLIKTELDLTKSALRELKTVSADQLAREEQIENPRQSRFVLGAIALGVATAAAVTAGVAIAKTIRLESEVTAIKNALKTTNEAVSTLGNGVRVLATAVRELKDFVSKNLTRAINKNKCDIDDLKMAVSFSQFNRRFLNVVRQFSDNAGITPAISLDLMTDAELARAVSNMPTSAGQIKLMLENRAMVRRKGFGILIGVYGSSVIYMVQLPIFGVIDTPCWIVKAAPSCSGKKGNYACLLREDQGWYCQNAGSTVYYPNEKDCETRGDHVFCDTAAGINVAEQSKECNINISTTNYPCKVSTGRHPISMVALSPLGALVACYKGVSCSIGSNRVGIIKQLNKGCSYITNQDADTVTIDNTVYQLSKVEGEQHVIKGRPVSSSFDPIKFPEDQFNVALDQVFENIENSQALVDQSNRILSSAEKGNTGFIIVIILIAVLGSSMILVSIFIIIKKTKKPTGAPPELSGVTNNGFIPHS

Sequence	Kd ([1]; every U is TAdU (deoxy))	Kd [2]	Kd ([1]; every U is TAdU (5-[(3-indolyl)propionamide-N-allyl]-2'-deoxyuridine), all sugars deoxyribose)	Kd [3]
GATCGAGCCAGCTACGTCAGUUAUGGUAUAGGUUGGUGGUGGGGGGGGGUUGUGGUGGGACAUGCCUCAGCGACUA [B1]	3.99 µM	–	–	–
GATCGAGCCAGCTACGTCAUGCUGUCAAUGGGUGGGUGUGGUGGGGUUGAUGUUAUGUGACAUGCCUCAGCGACUA [A2]	–	14.7 µM	0.994 µM	6.95 µM
GATCGAGCCAGCTACGTCAUGGUUGGGAGGUGUUGUGGGGAUGGUGGGUGGGAGUAUGACAUGCCUCAGCGACUA [D4]	2.76 µM	–	–	–

Reference: PMC10251311
